The labels stand for the following.
B1: Microtubule-associated tumor suppressor candidate 2 (Homo sapiens), Q5JR59-3 (parent)
chain: MGHCCCKPYNCLQCLDKTNESALVKEKELSIELANIRDEVAFHTAKCEKLQKEKEELERRFEDEVKRLGWQQQAELQELEERLQLQFEAEMARLQEEHGDQLLSIRCQHQEQVEDLTASHDAALLEMENNHTVAITILQDDHDHKVQELMSTHELEKKELEENFEKLRLSLQDQVDTLTFQSQSLRDRARRFEEALRKNTEEQLEIALAPYQHLEEDMKSLKQVLEMKNQQIHEQEKKILELEKLAEKNIILEEKIQVLQQQNEDLKARIDQNTVVTRQLSEENANLQEYVEKETQEKKRLSRTNEELLWKLQTGDPTSPIKLSPTSPVYRGSSSGPSSPARVSTTPR
partner: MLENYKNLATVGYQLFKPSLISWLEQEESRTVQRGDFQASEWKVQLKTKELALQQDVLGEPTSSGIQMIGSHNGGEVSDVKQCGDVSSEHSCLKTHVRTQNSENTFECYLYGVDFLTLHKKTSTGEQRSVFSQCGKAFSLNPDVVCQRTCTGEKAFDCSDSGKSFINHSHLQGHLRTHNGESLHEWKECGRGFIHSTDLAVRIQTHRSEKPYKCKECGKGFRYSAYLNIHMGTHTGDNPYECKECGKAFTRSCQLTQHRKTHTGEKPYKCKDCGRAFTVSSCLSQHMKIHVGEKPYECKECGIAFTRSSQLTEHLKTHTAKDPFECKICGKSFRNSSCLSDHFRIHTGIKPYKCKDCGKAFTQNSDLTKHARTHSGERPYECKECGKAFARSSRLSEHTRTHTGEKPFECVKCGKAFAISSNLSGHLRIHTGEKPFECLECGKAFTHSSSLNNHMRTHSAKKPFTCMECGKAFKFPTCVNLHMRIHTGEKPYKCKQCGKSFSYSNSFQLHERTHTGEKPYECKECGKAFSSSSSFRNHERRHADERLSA
B2: Prolyl 4-hydroxylase subunit alpha-3 (Homo sapiens), Q7Z4N8 (parent)
chain: MGPGARLAALLAVLALGTGDPERAAARGDTFSALTSVARALAPERRLLGLLRRYLRGEEARLRDLTRFYDKVLSLHEDSTTPVANPLLAFTLIKRLQSDWRNVVHSLEASENIRALKDGYEKVEQDLPAFEDLEGAARALMRLQDVYMLNVKGLARGVFQRVTGSAITDLYSPKRLFSLTGDDCFQVGKVAYDMGDYYHAIPWLEEAVSLFRGSYGEWKTEDEASLEDALDHLAFAYFRAGNVSCALSLSREFLLYSPDNKRMARNVLKYERLLAESPNHVVAEAVIQRPNIPHLQTRDTYEGLCQTLGSQPTLYQIPSLYCSYETNSNAYLLLQPIRKEVIHLEPYIALYHDFVSDSEAQKIRELAEPWLQRSVVASGEKQLQVEYRISKSAWLKDTVDPKLVTLNHRIAALTGLDVRPPYAEYLQVVNYGIGGHYEPHFDHATSPSSPLYRMKSGNRVATFMIYLSSVEAGGATAFIYANLSVPVVRNAALFWWNLHRSGEGDSDTLHAGCPVLVGDKWVANKWIHEYGQEFRRPCSSSPED
B3: E3 ubiquitin-protein ligase LNX (Homo sapiens), Q8TBB1 (parent)
chain: MNQPESANDPEPLCAVCGQAHSLEENHFYSYPEEVDDDLICHICLQALLDPLDTPCGHTYCTLCLTNFLVEKDFCPMDRKPLVLQHCKKSSILVNKLLNKLLVTCPFREHCTQVLQRCDLEHHFQTSCKGASHYGLTKDRKRRSQDGCPDGCASLTATAPSPEVSAAATISLMTDEPGLDNPAYVSSAEDGQPAISPVDSGRSNRTRARPFERSTIRSRSFKKINRALSVLRRTKSGSAVANHADQGRENSENTTAPEVFPRLYHLIPDGEITSIKINRVDPSESLSIRLVGGSETPLVHIIIQHIYRDGVIARDGRLLPGDIILKVNGMDISNVPHNYAVRLLRQPCQVLWLTVMREQKFRSRNNGQAPDAYRPRDDSFHVILNKSSPEEQLGIKLVRKVDEPGVFIFNVLDGGVAYRHGQLEENDRVLAINGHDLRYGSPESAAHLIQASERRVHLVVSRQVRQRSPDIFQEAGWNSNGSWSPGPGERSNTPKPLHPTITCHEKVVNIQKDPGESLGMTVAGGASHREWDLPIYVISVEPGGVISRDGRIKTGDILLNVDGVELTEVSRSEAVALLKRTSSSIVLKALEVKEYEPQEDCSSPAALDSNHNMAPPSDWSPSWVMWLELPRCLYNCKDIVLRRNTAGSLGFCIVGGYEEYNGNKPFFIKSIVEGTPAYNDGRIRCGDILLAVNGRSTSGMIHACLARLLKELKGRITLTIVSWPGTFL
B4: Transmembrane protein 140 (Homo sapiens), Q9NV12 (parent)
chain: MAGPRPRWRDQLLFMSIIVLVIVVICLMFYALLWEAGNLTDLPNLRIGFYNFCLWNEDTSTLQCHQFPELEALGVPRVGLGLARLGVYGSLVLTLFAPQPLLLAQCNSDERAWRLAVGFLAVSSVLLAGGLGLFLSYVWKWVRLSLPGPGFLALGSAQALLILLLIAMAVFPLRAERAESKLESC
partner: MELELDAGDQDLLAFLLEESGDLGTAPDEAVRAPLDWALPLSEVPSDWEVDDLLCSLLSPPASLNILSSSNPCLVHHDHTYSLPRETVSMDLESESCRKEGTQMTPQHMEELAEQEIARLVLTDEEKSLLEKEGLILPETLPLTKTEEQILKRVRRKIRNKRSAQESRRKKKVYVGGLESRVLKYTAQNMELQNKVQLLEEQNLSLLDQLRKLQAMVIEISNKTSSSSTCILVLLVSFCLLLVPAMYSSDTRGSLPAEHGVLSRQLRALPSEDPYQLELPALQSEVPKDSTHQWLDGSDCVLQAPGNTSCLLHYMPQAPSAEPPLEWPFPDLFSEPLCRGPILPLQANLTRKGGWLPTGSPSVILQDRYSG
B5: Dynein light chain 2, cytoplasmic (Homo sapiens), Q96FJ2 (parent)
chain: MSDRKAVIKNADMSEDMQQDAVDCATQAMEKYNIEKDIAAYIKKEFDKKYNPTWHCIVGRNFGSYVTHETKHFIYFYLGQVAILLFKSG
partner: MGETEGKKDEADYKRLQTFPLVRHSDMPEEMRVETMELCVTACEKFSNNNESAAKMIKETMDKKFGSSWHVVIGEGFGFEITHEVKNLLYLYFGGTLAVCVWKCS
B6: Protein FAM9B (Homo sapiens), Q8IZU0 (parent)
chain: MAAWGKKHAGKDPVRDECEERNRFTETREEDVTDEHGEREPFAETDEHTGANTKKPEDTAEDLTAKRKRMKMDKTCSKTKNKSKHALRKKQLKRQKRDYIHSLKLLNVLEEYITDEQKEEEEEEGEEEELIRIFQEQQKKWQQYRSVRRERLKEMKLLRDQFVKALEDFEDLCDRVFSDEDSELDN
partner: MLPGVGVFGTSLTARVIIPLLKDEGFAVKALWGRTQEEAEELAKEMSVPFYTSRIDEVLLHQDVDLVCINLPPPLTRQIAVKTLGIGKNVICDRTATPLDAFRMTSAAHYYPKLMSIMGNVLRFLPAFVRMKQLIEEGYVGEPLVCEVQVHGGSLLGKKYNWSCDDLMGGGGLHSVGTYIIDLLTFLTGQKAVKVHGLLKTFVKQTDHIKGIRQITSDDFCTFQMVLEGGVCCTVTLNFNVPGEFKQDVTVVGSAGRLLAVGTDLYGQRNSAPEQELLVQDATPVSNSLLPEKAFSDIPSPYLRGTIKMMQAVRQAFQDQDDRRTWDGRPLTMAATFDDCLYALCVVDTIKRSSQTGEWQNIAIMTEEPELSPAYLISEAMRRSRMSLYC
B7: Protein DBF4 homolog B (Homo sapiens), Q8NFT6 (parent)
chain: MSEPGKGDDCLELESSMAESRLRAPDLGVSRCLGKCQKNSPGARKHPFSGKSFYLDLPAGKNLQFLTGAIQQLGGVIEGFLSKEVSYIVSSRREVKAESSGKSHRGCPSPSPSEVRVETSAMVDPKGSHPRPSRKPVDSVPLSRGKELLQKAIRNQGSISGGGSGGSSSLLTNARSWGVRILHVDEMMMHVQQLSLASLCVKKQQPKKPEGTCPAAESRTRKVARLKAPFLKIEDESRKFRPFHHQFKSFPEISFLGPKDASPFEAPTTLGSMHHTRESKDGEPSPRSAAHTMPRRKKGYCECCQEAFEELHVHLQSAQHRSFALEAHLYAEVDRIIAQLSHSFADIPFQAGLPRWSGSPASDCDPLCPETLHPHQPSHPRAASPRIRKEDSCQASVTQGRAAGQQRWTESLDGVMGPPASHTCVSATTLLPALPKGSREQGCLCPCPASFTQSHLVTSLALLPGEWSPAEDMPLHPSQENSFAPADIPVKGPLLFPEARPWLMSARCWVRPFPFVTWGCLIPHDTTPLHEEVSPCPCLRLGYLYLLLTQSLWCRVRVPSLSTAGPIPRTSHPCTLAFPSYLNDHDLGHLCQAKPQGWNTPQPFLHCGFLAVDSG
partner: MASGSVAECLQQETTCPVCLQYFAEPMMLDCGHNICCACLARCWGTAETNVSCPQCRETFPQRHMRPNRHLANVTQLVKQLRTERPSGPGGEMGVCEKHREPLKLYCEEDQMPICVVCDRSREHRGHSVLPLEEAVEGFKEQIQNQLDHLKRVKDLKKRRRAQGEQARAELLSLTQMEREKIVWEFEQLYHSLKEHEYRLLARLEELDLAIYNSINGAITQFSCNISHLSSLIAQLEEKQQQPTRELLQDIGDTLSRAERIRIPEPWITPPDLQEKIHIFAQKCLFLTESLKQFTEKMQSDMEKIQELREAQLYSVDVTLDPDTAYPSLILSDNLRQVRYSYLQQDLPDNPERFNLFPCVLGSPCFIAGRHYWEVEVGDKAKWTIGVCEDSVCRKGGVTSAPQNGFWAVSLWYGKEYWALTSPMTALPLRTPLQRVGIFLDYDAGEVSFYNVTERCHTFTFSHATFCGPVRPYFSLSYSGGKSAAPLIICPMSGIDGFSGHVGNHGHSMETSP
B8: Protein BTG1 (Homo sapiens), P62324 (parent)
chain: MHPFYTRAATMIGEIAAAVSFISKFLRTKGLTSERQLQTFSQSLQELLAEHYKHHWFPEKPCKGSGYRCIRINHKMDPLIGQAAQRIGLSSQELFRLLPSELTLWVDPYEVSYRIGEDGSICVLYEASPAGGSTQNSTNVQMVDSRISCKEELLLGRTSPSKNYNMMTVSG
B9: Ribosomal RNA-processing protein 7 homolog A (Homo sapiens), Q9Y3A4 (parent)
chain: MVARRRKCAARDPEDRIPSPLGYAAIPIKFSEKQQASHYLYVRAHGVRQGTKSTWPQKRTLFVLNVPPYCTEESLSRLLSTCGLVQSVELQEKPDLAESPKESRSKFFHPKPVPGFQVAYVVFQKPSGVSAALALKGPLLVSTESHPVKSGIHKWISDYADSVPDPEALRVEVDTFMEAYDQKIAEEEAKAKEEEGVPDEEGWVKVTRRGRRPVLPRTEAASLRVLERERRKRSRKELLNFYAWQHRESKMEHLAQLRKKFEEDKQRIELLRAQRKFRPY

The variants in the first test derive from B1. The settings on record: with zn266_human ZNF266, Q14584.
With A89V, the “effect of a mutation on the interaction” value was “with no effect”.

Variants of B2 are the subject of another test. The settings on record: with maga2_human MAGEA2, P43356.
Chain of maga2_human MAGEA2, P43356 (P43356 whole entry): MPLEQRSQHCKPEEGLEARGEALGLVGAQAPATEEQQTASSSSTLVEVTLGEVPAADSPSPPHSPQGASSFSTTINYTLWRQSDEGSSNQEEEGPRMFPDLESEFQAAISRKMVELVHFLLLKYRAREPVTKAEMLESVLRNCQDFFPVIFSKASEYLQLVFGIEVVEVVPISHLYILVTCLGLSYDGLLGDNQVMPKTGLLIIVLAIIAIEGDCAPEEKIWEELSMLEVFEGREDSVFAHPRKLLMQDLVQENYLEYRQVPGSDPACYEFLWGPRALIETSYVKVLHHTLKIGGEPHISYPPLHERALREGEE
For the variant S378L, the “effect of a mutation on the interaction” value was “disrupting interaction strength”.

In another test the parent is B2. The settings on record: with nutm1_human NUTM1, Q86Y26.
Chain of nutm1_human NUTM1, Q86Y26 (Q86Y26 whole entry): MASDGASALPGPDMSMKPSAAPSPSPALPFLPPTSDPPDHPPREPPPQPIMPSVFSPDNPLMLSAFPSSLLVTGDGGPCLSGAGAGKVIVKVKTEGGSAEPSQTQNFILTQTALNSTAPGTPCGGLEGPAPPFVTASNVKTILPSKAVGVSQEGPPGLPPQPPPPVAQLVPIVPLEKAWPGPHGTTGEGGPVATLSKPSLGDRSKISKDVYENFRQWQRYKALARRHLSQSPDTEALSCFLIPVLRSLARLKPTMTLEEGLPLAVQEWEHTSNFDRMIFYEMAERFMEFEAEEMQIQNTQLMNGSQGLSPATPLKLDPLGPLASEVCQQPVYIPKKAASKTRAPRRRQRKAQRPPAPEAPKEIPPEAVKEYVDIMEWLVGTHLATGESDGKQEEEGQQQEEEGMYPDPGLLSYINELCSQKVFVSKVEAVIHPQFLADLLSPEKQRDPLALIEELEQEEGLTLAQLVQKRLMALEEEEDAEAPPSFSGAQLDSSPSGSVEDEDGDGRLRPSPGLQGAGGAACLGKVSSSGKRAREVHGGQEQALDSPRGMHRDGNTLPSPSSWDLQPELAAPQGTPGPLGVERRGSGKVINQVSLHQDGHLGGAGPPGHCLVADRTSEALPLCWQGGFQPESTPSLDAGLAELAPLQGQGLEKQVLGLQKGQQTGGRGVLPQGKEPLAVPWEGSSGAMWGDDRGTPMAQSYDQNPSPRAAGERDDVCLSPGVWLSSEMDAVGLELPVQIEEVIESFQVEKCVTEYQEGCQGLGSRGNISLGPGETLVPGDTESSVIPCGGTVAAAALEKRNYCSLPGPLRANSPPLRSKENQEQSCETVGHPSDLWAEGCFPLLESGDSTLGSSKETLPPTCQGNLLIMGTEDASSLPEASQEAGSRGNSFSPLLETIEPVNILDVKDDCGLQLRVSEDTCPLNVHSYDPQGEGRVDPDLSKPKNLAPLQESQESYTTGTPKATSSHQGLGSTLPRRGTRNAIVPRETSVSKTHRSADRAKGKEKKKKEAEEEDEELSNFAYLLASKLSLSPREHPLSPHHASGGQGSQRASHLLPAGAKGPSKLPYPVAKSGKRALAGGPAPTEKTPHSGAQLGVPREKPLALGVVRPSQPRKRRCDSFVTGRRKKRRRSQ
Consider S378L, for which the “effect of a mutation on the interaction” value is recorded as “disrupting interaction strength”.

The variants in a further test derive from B3. The settings on record: with tri23_human TRIM23, P36406.
Chain of tri23_human TRIM23, P36406 (P36406 whole entry): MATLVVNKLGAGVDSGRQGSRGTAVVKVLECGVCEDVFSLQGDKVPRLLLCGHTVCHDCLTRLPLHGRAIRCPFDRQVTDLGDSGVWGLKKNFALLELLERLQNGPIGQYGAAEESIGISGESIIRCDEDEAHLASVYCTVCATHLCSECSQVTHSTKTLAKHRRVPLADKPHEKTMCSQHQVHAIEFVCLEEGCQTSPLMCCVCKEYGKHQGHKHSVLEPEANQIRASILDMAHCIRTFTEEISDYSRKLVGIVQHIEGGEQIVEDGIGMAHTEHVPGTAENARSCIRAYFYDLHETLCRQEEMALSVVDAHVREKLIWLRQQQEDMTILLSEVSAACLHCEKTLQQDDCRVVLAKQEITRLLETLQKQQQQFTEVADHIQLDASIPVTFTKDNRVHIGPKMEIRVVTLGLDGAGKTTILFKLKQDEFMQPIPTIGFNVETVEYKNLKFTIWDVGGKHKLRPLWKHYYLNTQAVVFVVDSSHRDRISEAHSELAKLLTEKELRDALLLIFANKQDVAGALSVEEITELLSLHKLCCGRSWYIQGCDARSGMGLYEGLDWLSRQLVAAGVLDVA
On to R342H, for which the “effect of a mutation on the interaction” value is reported as “with no effect”.

The variants in another test derive from B3. Particulars: with clk2_human CLK2, P49760.
Chain of clk2_human CLK2, P49760 (P49760 whole entry, looked up): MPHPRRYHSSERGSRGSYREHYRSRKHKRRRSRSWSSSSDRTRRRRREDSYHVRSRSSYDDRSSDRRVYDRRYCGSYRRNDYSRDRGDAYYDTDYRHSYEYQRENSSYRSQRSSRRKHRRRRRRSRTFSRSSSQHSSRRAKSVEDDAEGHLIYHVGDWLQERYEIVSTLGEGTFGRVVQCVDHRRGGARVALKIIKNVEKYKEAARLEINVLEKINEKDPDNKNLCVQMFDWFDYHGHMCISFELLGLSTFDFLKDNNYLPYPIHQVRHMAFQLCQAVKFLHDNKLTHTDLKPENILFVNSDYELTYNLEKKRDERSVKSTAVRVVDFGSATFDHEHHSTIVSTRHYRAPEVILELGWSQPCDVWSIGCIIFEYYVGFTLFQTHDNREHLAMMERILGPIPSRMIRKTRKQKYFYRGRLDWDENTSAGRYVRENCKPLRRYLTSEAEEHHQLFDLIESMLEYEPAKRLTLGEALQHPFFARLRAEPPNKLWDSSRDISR
R342H: the “effect of a mutation on the interaction” value is “with no effect”.

A further test covers variants of B4. The settings on record: with creb3_human CREB3, O43889.
In the case of A112E, the “effect of a mutation on the interaction” value is “with no effect”.

In another test the parent is B5. Particulars: with dnal4_human DNAL4, O96015.
As to N33S, the “effect of a mutation on the interaction” value is listed as “with no effect”.

The next test covers variants of B6. The settings on record: with gfod1_human GFOD1, Q9NXC2.
R23H: the “effect of a mutation on the interaction” value was “with no effect”.

A further test covers variants of B7. The settings on record: with tri27_human TRIM27, P14373.
L199S: the “effect of a mutation on the interaction” value was “with no effect”.

The variants in a further test derive from B8. The settings on record: with cnot8_human CNOT8, Q9UFF9.
Chain of cnot8_human CNOT8, Q9UFF9 (Q9UFF9 whole entry): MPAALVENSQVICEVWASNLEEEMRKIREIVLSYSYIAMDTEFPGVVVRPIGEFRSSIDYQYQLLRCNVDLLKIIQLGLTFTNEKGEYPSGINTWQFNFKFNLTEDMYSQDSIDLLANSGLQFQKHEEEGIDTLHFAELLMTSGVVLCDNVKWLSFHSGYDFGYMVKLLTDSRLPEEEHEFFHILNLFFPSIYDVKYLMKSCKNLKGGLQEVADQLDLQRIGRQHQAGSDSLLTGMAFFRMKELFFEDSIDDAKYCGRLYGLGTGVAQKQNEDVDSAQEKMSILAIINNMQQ
N139S: the “effect of a mutation on the interaction” value is reported as “with no effect”.

In another test the parent is B9. Particulars: with tfp11_human TFIP11, Q9UBB9.
Chain of tfp11_human TFIP11, Q9UBB9 (Q9UBB9 whole entry): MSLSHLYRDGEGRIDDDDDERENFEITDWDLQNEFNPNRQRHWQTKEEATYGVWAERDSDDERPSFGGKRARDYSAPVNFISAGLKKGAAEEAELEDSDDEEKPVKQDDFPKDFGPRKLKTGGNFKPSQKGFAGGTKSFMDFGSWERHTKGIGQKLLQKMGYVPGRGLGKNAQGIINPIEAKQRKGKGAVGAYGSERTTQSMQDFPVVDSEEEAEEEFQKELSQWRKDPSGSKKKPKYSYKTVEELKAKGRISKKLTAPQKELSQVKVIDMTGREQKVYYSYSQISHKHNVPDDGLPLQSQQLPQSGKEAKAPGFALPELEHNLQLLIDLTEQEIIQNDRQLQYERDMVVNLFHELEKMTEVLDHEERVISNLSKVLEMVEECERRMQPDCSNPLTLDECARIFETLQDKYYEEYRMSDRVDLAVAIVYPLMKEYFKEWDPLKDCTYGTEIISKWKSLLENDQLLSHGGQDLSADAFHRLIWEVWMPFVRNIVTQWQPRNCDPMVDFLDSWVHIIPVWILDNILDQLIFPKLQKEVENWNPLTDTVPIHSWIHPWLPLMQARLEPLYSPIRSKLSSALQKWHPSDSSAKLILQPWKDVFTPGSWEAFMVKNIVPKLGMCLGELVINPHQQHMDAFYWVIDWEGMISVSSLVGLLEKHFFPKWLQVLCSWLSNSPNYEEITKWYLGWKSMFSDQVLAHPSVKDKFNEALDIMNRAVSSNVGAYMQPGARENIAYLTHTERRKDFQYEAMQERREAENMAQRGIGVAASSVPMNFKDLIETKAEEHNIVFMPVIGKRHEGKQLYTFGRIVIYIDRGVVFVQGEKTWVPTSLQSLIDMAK
With V85I, the “effect of a mutation on the interaction” value is on record as “with no effect”.

As to L75M, the “effect of a mutation on the interaction” value is on record as “disrupting interaction strength”.

These data come from IntAct's records for PubMed 31515488.
